Measured values published in patent publication US20220289830A1 (STAIDSON BEIJING BIOPHARMACEUTICALS, published 2022).
Numbering of substitutions follows the chain as printed.

What was measured:
[1] = biological target: T1, recombinant Pseudomonas aeruginosa PcrV, full-length (PAO), His-tagged (Pseudomonas aeruginosa); experiment: BLI
[2] = biological target: T2, native PcrV on live Pseudomonas aeruginosa (strains O6-57/66, O11-PA103, O1-52/66, O16-177/81) (Pseudomonas aeruginosa); experiment: cell-based or functional assay
[3] = biological target: T2, native PcrV on live Pseudomonas …; experiment: cell-based or functional assay; remark: listed apart in the source
[4] = biological target: T2, native PcrV on live Pseudomonas …; experiment: cell-based or functional assay; remark: listed apart in the source
[5] = biological target: T2, native PcrV on live Pseudomonas …; experiment: cell-based or functional assay; remark: listed apart in the source
[6] = biological target: T1, recombinant Pseudomonas aeruginosa …; experiment: SPR (BIACORE)
[7] = biological target: T1, recombinant Pseudomonas aeruginosa …; experiment: ELISA, PcrV coated on the plate, goat anti-human Fc-AP detection

B1: 7C1 (antibody, V domains shown)
VH: EVQLLESGGGLVQPGGSLRLSCTASGFTFSDNHMSWVRQAPGKGLDWVSGISESGGSTNYADSVKGRFSTSRDNSKSTLYLDMNSLRAEDTAIYYCAKGRFSTSSSHFYRAVYGMDVWGQGTAVTVSS
VL: DIQLTQSPSSLSASVGDRVTITCRASQGISSYLAWYQQKPGKAPKLLIYAASTLQSGVPSRFSGSGSGTDFTLTISSLQPEDFATYYCQQLSSYPLSFGGGTKVEIK
notes: also called optimized anti-PcrV mAb clone 7C1
Kd [1]: 101 pM
RBC lysis Average IC50 over the three strains [2]: 0.195 µg/mL
RBC lysis IC50, strain O1-52/66 [2]: 0.367 µg/mL
RBC lysis IC50, strain O6-57/66 [2]: 0.0767 µg/mL
RBC lysis IC50, strain O16-177/81 [2]: 0.141 µg/mL
A549 cytotoxicity assay IC50 (P. aeruginosa strain PA103(O11)) [3]: 1.36 µg/mL
RBC lysis assay IC50 (P. aeruginosa strain 57/66(O6)) [4]: 0.1 µg/mL
A549 cell lysis Average IC50 over the strains [5]: 1.18 µg/mL
A549 cell lysis IC50, strain O1-52/66 [5]: 2 µg/mL
A549 cell lysis IC50, strain O6-57/66 [5]: 0.496 µg/mL
A549 cell lysis IC50, strain O11-PA103 [5]: 1.12 µg/mL
A549 cell lysis IC50, strain O16-177/81 [5]: 1.09 µg/mL
Kd [6]: 45.7 pM
EC50 [7]: 0.134 µg/mL

B2: 4A10 (antibody, V domains shown)
VH: B1 VH with D31S, N32Y, H33P, T103D, S104A, S106E, Y109F
VL: B1 VL with A43T, S97T
notes: also called optimized anti-PcrV mAb clone 4A10
Kd [1]: 606 pM
A549 cytotoxicity assay IC50 (P. aeruginosa strain PA103(O11)) [3]: 2.8 µg/mL
RBC lysis assay IC50 (P. aeruginosa strain 57/66(O6)) [4]: 0.16 µg/mL
EC50 [7]: 0.113 µg/mL

B3: 5B3 (antibody, V domains shown)
VH: B1 VH with N32Y, H33P, Y60D, T103Q, S104D, S106Y, Y109F
VL: B1 VL
notes: also called optimized anti-PcrV mAb clone 5B3
Kd [1]: 455 pM
A549 cytotoxicity assay IC50 (P. aeruginosa strain PA103(O11)) [3]: 2.39 µg/mL
RBC lysis assay IC50 (P. aeruginosa strain 57/66(O6)) [4]: 0.12 µg/mL
EC50 [7]: 0.109 µg/mL

B4: 13-42 mAb (antibody, V domains shown)
VH: B1 VH with N32Y, H33P, Y60D, S102C, S104N, H107C, Y109F
VL: B1 VL
Kd [1]: 414 pM
RBC lysis Average IC50 over the three strains [2]: 0.355 µg/mL
RBC lysis IC50, strain O1-52/66 [2]: 0.472 µg/mL
RBC lysis IC50, strain O6-57/66 [2]: 0.13 µg/mL
RBC lysis IC50, strain O16-177/81 [2]: 0.464 µg/mL
A549 cytotoxicity assay IC50 (P. aeruginosa strain PA103(O11)) [3]: 2.67 µg/mL
RBC lysis assay IC50 (P. aeruginosa strain 57/66(O6)) [4]: 0.23 µg/mL
A549 cell lysis Average IC50 over the strains [5]: 1.38 µg/mL
A549 cell lysis IC50, strain O1-52/66 [5]: 2.34 µg/mL
A549 cell lysis IC50, strain O6-57/66 [5]: 0.891 µg/mL
A549 cell lysis IC50, strain O11-PA103 [5]: 1.21 µg/mL
A549 cell lysis IC50, strain O16-177/81 [5]: 1.08 µg/mL
EC50 [7]: 0.132 µg/mL

B5: 6A10 (antibody, V domains shown)
VH: B1 VH with Y109F
VL: B1 VL
notes: also called optimized anti-PcrV mAb clone 6A10
Kd [1]: 204 pM
A549 cytotoxicity assay IC50 (P. aeruginosa strain PA103(O11)) [3]: 2 µg/mL
RBC lysis assay IC50 (P. aeruginosa strain 57/66(O6)) [4]: 0.04 µg/mL
EC50 [7]: 0.104 µg/mL

B6: 7B2 (antibody, V domains shown)
VH: B1 VH with N32Y, H33P, S104D, Y109F
VL: B1 VL
notes: also called optimized anti-PcrV mAb clone 7B2
Kd [1]: 87.5 pM
A549 cytotoxicity assay IC50 (P. aeruginosa strain PA103(O11)) [3]: 2.32 µg/mL
RBC lysis assay IC50 (P. aeruginosa strain 57/66(O6)) [4]: 0.05 µg/mL
EC50 [7]: 0.0967 µg/mL

B7: 2B1 (antibody, V domains shown)
VH: B1 VH with D31S, N32Y, H33P, T103G, S104E, S106H, Y109F
VL: B1 VL
notes: also called optimized anti-PcrV mAb clone 2B1
Kd [1]: 194 pM
A549 cytotoxicity assay IC50 (P. aeruginosa strain PA103(O11)) [3]: 3.01 µg/mL
RBC lysis assay IC50 (P. aeruginosa strain 57/66(O6)) [4]: 0.12 µg/mL
EC50 [7]: 0.162 µg/mL

B8: 3B12 (antibody, V domains shown)
VH: B1 VH with D31S, T103D, S104E, S105Y, S106G, Y109F
VL: B1 VL with S97T
notes: also called optimized anti-PcrV mAb clone 3B12
Kd [1]: 167 pM
A549 cytotoxicity assay IC50 (P. aeruginosa strain PA103(O11)) [3]: 2.68 µg/mL
RBC lysis assay IC50 (P. aeruginosa strain 57/66(O6)) [4]: 0.16 µg/mL
EC50 [7]: 0.118 µg/mL

B9: 3A9 (antibody, V domains shown)
VH: B1 VH with N32Y, H33S, T103D, S105T, S106K, Y109F
VL: B1 VL
notes: also called optimized anti-PcrV mAb clone 3A9
Kd [1]: 533 pM
A549 cytotoxicity assay IC50 (P. aeruginosa strain PA103(O11)) [3]: 1.21 µg/mL
RBC lysis assay IC50 (P. aeruginosa strain 57/66(O6)) [4]: 0.23 µg/mL
EC50 [7]: 0.116 µg/mL

B10: 3H10 (antibody, V domains shown)
VH: B1 VH with N32Y, H33P, Y60D, T103D, S104Y, S106Q, Y109F
VL: B1 VL with S92N, S97T
notes: also called optimized anti-PcrV mAb clone 3H10
Kd [1]: 779 pM
A549 cytotoxicity assay IC50 (P. aeruginosa strain PA103(O11)) [3]: 1.78 µg/mL
RBC lysis assay IC50 (P. aeruginosa strain 57/66(O6)) [4]: 0.16 µg/mL
EC50 [7]: 0.149 µg/mL

B11: 3G3 (antibody, V domains shown)
VH: B1 VH with N32Y, H33P, N59Y, Y60D, T103A, S105A, S106G, Y109F
VL: B1 VL with S30R
notes: also called optimized anti-PcrV mAb clone 3G3
Kd [1]: 381 pM
A549 cytotoxicity assay IC50 (P. aeruginosa strain PA103(O11)) [3]: 2.75 µg/mL
RBC lysis assay IC50 (P. aeruginosa strain 57/66(O6)) [4]: 0.18 µg/mL
EC50 [7]: 0.0936 µg/mL

B12: 3A11 (antibody, V domains shown)
VH: B1 VH with D31S, N32Y, T103Q, Y109F
VL: B1 VL with S97T
notes: also called optimized anti-PcrV mAb clone 3A11
Kd [1]: 126 pM
A549 cytotoxicity assay IC50 (P. aeruginosa strain PA103(O11)) [3]: 0.91 µg/mL
EC50 [7]: 0.0952 µg/mL

B13: 8C1 (antibody, V domains shown)
VH: B1 VH with S104N, S106A, Y109F
VL: B1 VL with S97T
notes: also called optimized anti-PcrV mAb clone 8C1
Kd [1]: 330 pM
RBC lysis Average IC50 over the three strains [2]: 0.266 µg/mL
RBC lysis IC50, strain O1-52/66 [2]: 0.424 µg/mL
RBC lysis IC50, strain O6-57/66 [2]: 0.121 µg/mL
RBC lysis IC50, strain O16-177/81 [2]: 0.252 µg/mL
A549 cytotoxicity assay IC50 (P. aeruginosa strain PA103(O11)) [3]: 1.94 µg/mL
RBC lysis assay IC50 (P. aeruginosa strain 57/66(O6)) [4]: 0.12 µg/mL
A549 cell lysis Average IC50 over the strains [5]: 1.05 µg/mL
A549 cell lysis IC50, strain O6-57/66 [5]: 0.721 µg/mL
A549 cell lysis IC50, strain O11-PA103 [5]: 1.54 µg/mL
A549 cell lysis IC50, strain O16-177/81 [5]: 0.881 µg/mL
Kd [6]: 31.6 pM
EC50 [7]: 0.111 µg/mL

B14: 7B1 (antibody, V domains shown)
VH: B1 VH with H33Y, G50V, S104L, Y109F
VL: B1 VL with S97T
notes: also called 7B1-IgG1; 7B1 mAb
Kd [1]: < 1 pM
RBC lysis Average IC50 over the three strains [2]: 0.214 µg/mL
RBC lysis IC50, strain O1-52/66 [2]: 0.308 µg/mL
RBC lysis IC50, strain O6-57/66 [2]: 0.138 µg/mL
RBC lysis IC50, strain O16-177/81 [2]: 0.197 µg/mL
A549 cytotoxicity assay IC50 (P. aeruginosa strain PA103(O11)) [3]: 1.06 µg/mL
RBC lysis assay IC50 (P. aeruginosa strain 57/66(O6)) [4]: 0.1 µg/mL
A549 cell lysis Average IC50 over the strains [5]: 2.13 µg/mL
A549 cell lysis IC50, strain O1-52/66 [5]: 4.56 µg/mL
A549 cell lysis IC50, strain O6-57/66 [5]: 0.503 µg/mL
A549 cell lysis IC50, strain O11-PA103 [5]: 2.61 µg/mL
A549 cell lysis IC50, strain O16-177/81 [5]: 0.861 µg/mL
Kd [6]: 84.7 pM
EC50 [7]: 0.125 µg/mL

B15: 6D10 (antibody, V domains shown)
VH: B1 VH with N32Y, H33P, S104D
VL: B1 VL
notes: also called optimized anti-PcrV mAb clone 6D10
A549 cytotoxicity assay IC50 (P. aeruginosa strain PA103(O11)) [3]: 2.63 µg/mL
RBC lysis assay IC50 (P. aeruginosa strain 57/66(O6)) [4]: 0.16 µg/mL
Kd [6]: 52 pM
